# Measurements: paper PMC6555819, “Comprehensive study of nuclear receptor DNA binding provides a revised framework for understanding receptor specificity”
# Columns and labels:
# LXRb:RXRa = LXRb:RXRa (Homo sapiens, UniProt P55055;P19793 full;full); test: no ligand; PBM; 270 nM : 90 nM RXRa; PBS pH 7.4, 2% milk, 0.02% Triton X-100, 1 mM DTT, BSA, 0.4 mg/ml salmon testes DNA; conditions: tags: His kept;His cleaved; copies: 1;1; label: surface-attached array probe
# In short: (§1)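 Antibodies against each partner of ligand-free nuclear receptor dimers (one per run) detected binding on custom Agilent 4×180K protein-binding microarrays after 1 h incubation. The double-stranded probes had 34-nt variable regions carrying direct-repeat seeds, single-nucleotide variants, half-site ablations and random human genomic background sequences. Binding z-scores, from regression-normalized fluorescence, use the random background probes as reference.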
# RARb:RXRa = RARb:RXRa (Homo sapiens, UniProt P10826;P19793 full;full); test: as above; conditions: tags: His kept;His cleaved; copies: 1;1; label: surface-attached array probe
# In short: as §1
# PPARa:RXRa = PPARa:RXRa (Homo sapiens, UniProt Q07869;P19793 full;full); test: as above; conditions: tags: GST kept;His cleaved; copies: 1;1; label: surface-attached array probe
# In short: as §1
# RARg:RXRa = RARg:RXRa (Homo sapiens, UniProt P13631;P19793 full;full); test: as above; conditions: tags: His kept;His cleaved; copies: 1;1; label: surface-attached array probe
# In short: as §1
# FXR:RXRa = FXR:RXRa (Homo sapiens, UniProt Q96RI1;P19793 full;full); test: as above; conditions: tags: His kept;His cleaved; copies: 1;1; label: surface-attached array probe
# In short: as §1
# RXRa = RXRa (Homo sapiens, UniProt P19793); test: no ligand; PBM; 180 nM; PBS pH 7.4, 2% milk, 0.02% Triton X-100, 1 mM DTT, BSA, 0.4 mg/ml salmon testes DNA; conditions: tags: His cleaved; chain copies: 2; label: surface-attached array probe
# Sequence of RXRa (P19793 whole entry): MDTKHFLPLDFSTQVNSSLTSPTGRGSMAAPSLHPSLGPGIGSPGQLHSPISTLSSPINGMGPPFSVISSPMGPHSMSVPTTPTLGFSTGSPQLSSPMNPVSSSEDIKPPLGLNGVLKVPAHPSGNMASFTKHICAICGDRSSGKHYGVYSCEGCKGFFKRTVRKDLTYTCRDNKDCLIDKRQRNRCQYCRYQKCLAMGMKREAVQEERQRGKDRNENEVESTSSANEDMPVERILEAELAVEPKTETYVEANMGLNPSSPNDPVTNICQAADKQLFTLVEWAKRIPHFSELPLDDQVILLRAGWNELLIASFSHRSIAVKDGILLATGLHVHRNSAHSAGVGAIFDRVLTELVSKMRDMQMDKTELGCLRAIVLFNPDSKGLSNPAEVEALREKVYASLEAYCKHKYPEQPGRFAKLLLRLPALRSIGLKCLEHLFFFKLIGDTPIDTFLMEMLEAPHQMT
# Sequence of RARb:RXRa (P10826 whole entry, chain 1 of 2): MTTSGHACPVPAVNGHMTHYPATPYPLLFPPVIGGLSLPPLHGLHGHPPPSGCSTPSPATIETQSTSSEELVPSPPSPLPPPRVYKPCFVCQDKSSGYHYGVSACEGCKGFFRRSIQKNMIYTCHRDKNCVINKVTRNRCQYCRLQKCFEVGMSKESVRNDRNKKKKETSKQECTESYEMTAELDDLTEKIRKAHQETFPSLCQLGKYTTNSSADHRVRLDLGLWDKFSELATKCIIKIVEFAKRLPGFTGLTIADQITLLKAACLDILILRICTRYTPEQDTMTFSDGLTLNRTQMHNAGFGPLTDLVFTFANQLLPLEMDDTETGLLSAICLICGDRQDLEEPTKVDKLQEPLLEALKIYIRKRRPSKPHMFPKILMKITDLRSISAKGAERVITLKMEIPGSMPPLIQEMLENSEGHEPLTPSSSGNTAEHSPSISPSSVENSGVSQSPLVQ
# Sequence of RARb:RXRa (P19793 whole entry, chain 2 of 2): as the sequence (P19793 whole entry) above
# Sequence of LXRb:RXRa (P55055 whole entry, chain 1 of 2): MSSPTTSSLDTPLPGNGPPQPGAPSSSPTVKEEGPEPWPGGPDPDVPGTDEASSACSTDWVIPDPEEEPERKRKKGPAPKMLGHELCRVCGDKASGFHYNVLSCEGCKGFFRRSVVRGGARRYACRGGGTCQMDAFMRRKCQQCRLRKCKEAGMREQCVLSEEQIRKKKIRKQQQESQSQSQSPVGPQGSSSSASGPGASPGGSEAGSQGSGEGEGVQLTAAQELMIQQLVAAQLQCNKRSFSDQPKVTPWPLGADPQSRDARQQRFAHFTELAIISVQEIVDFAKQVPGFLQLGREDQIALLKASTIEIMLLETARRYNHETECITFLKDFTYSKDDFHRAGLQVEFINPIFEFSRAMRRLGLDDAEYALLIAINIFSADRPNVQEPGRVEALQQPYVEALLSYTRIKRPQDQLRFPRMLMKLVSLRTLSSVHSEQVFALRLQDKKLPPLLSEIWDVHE
# Sequence of LXRb:RXRa (P19793 whole entry, chain 2 of 2): as the sequence (P19793 whole entry) above
# Sequence of RARg:RXRa (P13631 whole entry, chain 1 of 2): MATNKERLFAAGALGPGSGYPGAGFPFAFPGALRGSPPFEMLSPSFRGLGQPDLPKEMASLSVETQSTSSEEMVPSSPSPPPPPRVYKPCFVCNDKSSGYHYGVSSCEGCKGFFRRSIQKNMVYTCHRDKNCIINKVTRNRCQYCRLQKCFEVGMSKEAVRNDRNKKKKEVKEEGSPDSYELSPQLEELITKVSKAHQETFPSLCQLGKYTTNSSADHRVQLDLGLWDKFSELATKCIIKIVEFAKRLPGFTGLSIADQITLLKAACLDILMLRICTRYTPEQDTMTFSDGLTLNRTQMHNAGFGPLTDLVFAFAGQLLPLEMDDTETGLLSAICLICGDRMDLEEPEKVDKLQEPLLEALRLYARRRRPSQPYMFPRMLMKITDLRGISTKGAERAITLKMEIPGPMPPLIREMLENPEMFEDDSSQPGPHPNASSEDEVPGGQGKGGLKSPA
# Sequence of RARg:RXRa (P19793 whole entry, chain 2 of 2): as the sequence (P19793 whole entry) above
# Sequence of PPARa:RXRa (Q07869 whole entry, chain 1 of 2): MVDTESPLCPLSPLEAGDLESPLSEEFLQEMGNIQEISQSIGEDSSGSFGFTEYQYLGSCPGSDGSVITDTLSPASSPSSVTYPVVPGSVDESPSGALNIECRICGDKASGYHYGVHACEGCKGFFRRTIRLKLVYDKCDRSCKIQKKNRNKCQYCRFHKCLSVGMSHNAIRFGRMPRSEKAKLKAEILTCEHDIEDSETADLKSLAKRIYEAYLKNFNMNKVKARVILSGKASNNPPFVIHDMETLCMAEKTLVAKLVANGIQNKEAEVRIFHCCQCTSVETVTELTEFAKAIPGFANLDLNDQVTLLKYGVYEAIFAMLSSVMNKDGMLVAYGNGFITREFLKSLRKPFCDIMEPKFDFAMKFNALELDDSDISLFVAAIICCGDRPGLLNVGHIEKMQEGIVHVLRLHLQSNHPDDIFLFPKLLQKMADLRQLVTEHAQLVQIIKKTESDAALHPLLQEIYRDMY
# Sequence of PPARa:RXRa (P19793 whole entry, chain 2 of 2): as the sequence (P19793 whole entry) above
# Sequence of FXR:RXRa (Q96RI1 whole entry, chain 1 of 2): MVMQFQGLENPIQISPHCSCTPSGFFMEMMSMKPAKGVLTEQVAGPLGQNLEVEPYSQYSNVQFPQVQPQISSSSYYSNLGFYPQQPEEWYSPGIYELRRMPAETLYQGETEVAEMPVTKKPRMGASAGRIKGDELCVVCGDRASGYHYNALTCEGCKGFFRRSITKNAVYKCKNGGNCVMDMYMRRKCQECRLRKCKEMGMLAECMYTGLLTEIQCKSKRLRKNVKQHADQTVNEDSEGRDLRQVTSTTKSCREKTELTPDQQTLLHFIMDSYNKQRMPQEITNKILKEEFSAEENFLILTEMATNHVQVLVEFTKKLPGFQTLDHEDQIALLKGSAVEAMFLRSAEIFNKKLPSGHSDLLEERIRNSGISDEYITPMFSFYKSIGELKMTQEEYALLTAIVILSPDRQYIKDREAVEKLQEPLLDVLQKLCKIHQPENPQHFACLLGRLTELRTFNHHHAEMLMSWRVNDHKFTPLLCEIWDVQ
# Sequence of FXR:RXRa (P19793 whole entry, chain 2 of 2): as the sequence (P19793 whole entry) above
Binder,binding signal (LXRb:RXRa),also measured
NRC3_random_hg19_18_o1 (dsDNA) DNA 1: GCATACACTTCTGGAGGCCAGAGGTCTGAAATCAAGGCGATTGACAGCGTAGAATGAAGG DNA 2: CCTTCATTCTACGCTGTCAATCGCCTTGATTTCAGACCTCTGGCCTCCAGAAGTGTATGC,-0.22 PBM z-score against 500 random probes,binding signal (RARb:RXRa): 0.42 PBM z-score against 500 random probes
NRC3_random_hg19_122_o1 (dsDNA) DNA 1: GCTGGCAATGGCTGGACCACTCCAAGAACTGTGTGGGCGATTGACAGCGTAGAATGAAGG DNA 2: CCTTCATTCTACGCTGTCAATCGCCCACACAGTTCTTGGAGTGGTCCAGCCATTGCCAGC,-0.85 PBM z-score against 500 random probes,–
NRC3_random_hg19_201_o1 (dsDNA) DNA 1: GCCAAGGCTACCAAAGCAGTTTCTGGGCATGCTGAGGCGATTGACAGCGTAGAATGAAGG DNA 2: CCTTCATTCTACGCTGTCAATCGCCTCAGCATGCCCAGAAACTGCTTTGGTAGCCTTGGC,-0.95 PBM z-score against 500 random probes,binding signal (PPARa:RXRa): -0.55 PBM z-score against 500 random probes
NRC3_random_hg19_352_o1 (dsDNA) DNA 1: GCGAGATGCAGCCAACCTGTAGAGATCCTGTGGAGAGCGATTGACAGCGTAGAATGAAGG DNA 2: CCTTCATTCTACGCTGTCAATCGCTCTCCACAGGATCTCTACAGGTTGGCTGCATCTCGC,-0.67 PBM z-score against 500 random probes,binding signal (RARg:RXRa): -0.52 PBM z-score against 500 random probes; binding signal (FXR:RXRa): -0.39 PBM z-score against 500 random probes; binding signal (PPARa:RXRa): -0.6 PBM z-score against 500 random probes
NRC3_wobSeed37_DR1_T23C_o1 (dsDNA) DNA 1: GCCGTCCAAGGTCAAAGGTCAGCGAAGAGATGACGGGCGATTGACAGCGTAGAATGAAGG DNA 2: CCTTCATTCTACGCTGTCAATCGCCCGTCATCTCTTCGCTGACCTTTGACCTTGGACGGC,7.14 PBM z-score against 500 random probes,binding signal (RARb:RXRa): 6.23 PBM z-score against 500 random probes
NRC3_wobSeed74_DR3_T21G_o1 (dsDNA) DNA 1: GCTCTAGTTGGTCACGGAGGGCACACACGACGGGTAGCGATTGACAGCGTAGAATGAAGG DNA 2: CCTTCATTCTACGCTGTCAATCGCTACCCGTCGTGTGTGCCCTCCGTGACCAACTAGAGC,0.5 PBM z-score against 500 random probes,binding signal (FXR:RXRa): 0.34 PBM z-score against 500 random probes
NRC3_random_hg19_182_o1 (dsDNA) DNA 1: GCGCAGGAGACTCACTTGTGCATGCAGGGTTGAGGCGCGATTGACAGCGTAGAATGAAGG DNA 2: CCTTCATTCTACGCTGTCAATCGCGCCTCAACCCTGCATGCACAAGTGAGTCTCCTGCGC,-1.08 PBM z-score against 500 random probes,–
NRC3_random_hg19_405_o1 (dsDNA) DNA 1: GCAGCGCACCAGCATGGCACATGTATACATATGTAAGCGATTGACAGCGTAGAATGAAGG DNA 2: CCTTCATTCTACGCTGTCAATCGCTTACATATGTATACATGTGCCATGCTGGTGCGCTGC,-0.44 PBM z-score against 500 random probes,–
NRC3_random_hg19_43_o1 (dsDNA) DNA 1: GCAGGACCTCTTCAAGGAGAACTACAAACCACTGCTGCGATTGACAGCGTAGAATGAAGG DNA 2: CCTTCATTCTACGCTGTCAATCGCAGCAGTGGTTTGTAGTTCTCCTTGAAGAGGTCCTGC,-0.03 PBM z-score against 500 random probes,binding signal (RARb:RXRa): -0.5 PBM z-score against 500 random probes; binding signal (PPARa:RXRa): -0.17 PBM z-score against 500 random probes
NRC3_random_hg19_472_o1 (dsDNA) DNA 1: GCTGATGGGCTTCAAGTTGCTAACCCAGGAAATGGAGCGATTGACAGCGTAGAATGAAGG DNA 2: CCTTCATTCTACGCTGTCAATCGCTCCATTTCCTGGGTTAGCAACTTGAAGCCCATCAGC,-0.26 PBM z-score against 500 random probes,–
NRC3_random_hg19_86_o1 (dsDNA) DNA 1: GCAAACAAGGAGGAGAGGTGTTCTGGAGAACTGCTTGCGATTGACAGCGTAGAATGAAGG DNA 2: CCTTCATTCTACGCTGTCAATCGCAAGCAGTTCTCCAGAACACCTCTCCTCCTTGTTTGC,0.18 PBM z-score against 500 random probes,–
NRC3_random_hg19_193_o1 (dsDNA) DNA 1: GCTGGAAGATGAAGAAGAACTATTGCTCGATGGAGAGCGATTGACAGCGTAGAATGAAGG DNA 2: CCTTCATTCTACGCTGTCAATCGCTCTCCATCGAGCAATAGTTCTTCTTCATCTTCCAGC,-0.54 PBM z-score against 500 random probes,–
NRC3_random_hg19_46_o1 (dsDNA) DNA 1: GCAGTAATGCCAATGTCATGATGTGGTCCAGGAATGGCGATTGACAGCGTAGAATGAAGG DNA 2: CCTTCATTCTACGCTGTCAATCGCCATTCCTGGACCACATCATGACATTGGCATTACTGC,-0.76 PBM z-score against 500 random probes,–
NRC3_random_hg19_61_o1 (dsDNA) DNA 1: GCGCAGAGGTTGCAATGAGCCAAGATTGTACCACTGGCGATTGACAGCGTAGAATGAAGG DNA 2: CCTTCATTCTACGCTGTCAATCGCCAGTGGTACAATCTTGGCTCATTGCAACCTCTGCGC,-0.15 PBM z-score against 500 random probes,–
NRC3_wobSeed10_DR0_G17T_o1 (dsDNA) DNA 1: GCATCGAAAGGTCGAGTTGAGTATAGAGAAAGGGAAGCGATTGACAGCGTAGAATGAAGG DNA 2: CCTTCATTCTACGCTGTCAATCGCTTCCCTTTCTCTATACTCAACTCGACCTTTCGATGC,3.11 PBM z-score against 500 random probes,binding signal (RXRa): 4.1 PBM z-score against 500 random probes
NRC3_random_hg19_39_o1 (dsDNA) DNA 1: GCGGGCAACTCGTTCGACTCAGGGAGCTATGGGTAGGCGATTGACAGCGTAGAATGAAGG DNA 2: CCTTCATTCTACGCTGTCAATCGCCTACCCATAGCTCCCTGAGTCGAACGAGTTGCCCGC,-0.61 PBM z-score against 500 random probes,–
NRC3_random_hg19_110_o1 (dsDNA) DNA 1: GCTGCTGATTCATAGCTTGTAACTTCGTGTTCTTTAGCGATTGACAGCGTAGAATGAAGG DNA 2: CCTTCATTCTACGCTGTCAATCGCTAAAGAACACGAAGTTACAAGCTATGAATCAGCAGC,-0.27 PBM z-score against 500 random probes,binding signal (RARg:RXRa): -0.76 PBM z-score against 500 random probes
NRC3_random_hg19_97_o1 (dsDNA) DNA 1: GCAAAGGCCTGAGAACCAGGACCTCCAGTGTCCTCAGCGATTGACAGCGTAGAATGAAGG DNA 2: CCTTCATTCTACGCTGTCAATCGCTGAGGACACTGGAGGTCCTGGTTCTCAGGCCTTTGC,-0.68 PBM z-score against 500 random probes,–
NRC3_random_hg19_65_o1 (dsDNA) DNA 1: GCATGGTGATGAAAGCAAAGGAGTAATGTTTCTGTGGCGATTGACAGCGTAGAATGAAGG DNA 2: CCTTCATTCTACGCTGTCAATCGCCACAGAAACATTACTCCTTTGCTTTCATCACCATGC,0.22 PBM z-score against 500 random probes,–
NRC3_random_hg19_100_o1 (dsDNA) DNA 1: GCGAGTTTGAGACCAGCCTGGCCAACATGGCAAGAGGCGATTGACAGCGTAGAATGAAGG DNA 2: CCTTCATTCTACGCTGTCAATCGCCTCTTGCCATGTTGGCCAGGCTGGTCTCAAACTCGC,-1.11 PBM z-score against 500 random probes,binding signal (FXR:RXRa): -0.7 PBM z-score against 500 random probes
NRC3_random_hg19_71_o1 (dsDNA) DNA 1: GCCATGTCACCTCCCTGAGGTGCAGTTTGCTTCAAGGCGATTGACAGCGTAGAATGAAGG DNA 2: CCTTCATTCTACGCTGTCAATCGCCTTGAAGCAAACTGCACCTCAGGGAGGTGACATGGC,0.34 PBM z-score against 500 random probes,–
NRC3_wobSeed29_DR1_T22A_o1 (dsDNA) DNA 1: GCGCTTACGGGTCAAAGGTTAAAGCATGAATAGAATGCGATTGACAGCGTAGAATGAAGG DNA 2: CCTTCATTCTACGCTGTCAATCGCATTCTATTCATGCTTTAACCTTTGACCCGTAAGCGC,6.19 PBM z-score against 500 random probes,binding signal (RXRa): 10 PBM z-score against 500 random probes
NRC3_wobSeed29_DR1_G17A_o1 (dsDNA) DNA 1: GCGCTTACGGGTCAAAAGTTATAGCATGAATAGAATGCGATTGACAGCGTAGAATGAAGG DNA 2: CCTTCATTCTACGCTGTCAATCGCATTCTATTCATGCTATAACTTTTGACCCGTAAGCGC,3.65 PBM z-score against 500 random probes,binding signal (RARg:RXRa): 4.11 PBM z-score against 500 random probes
NRC3_random_hg19_348_o1 (dsDNA) DNA 1: GCGGAGCAGTCTGCTTTCACGCAGCCTGCTGGGCACGCGATTGACAGCGTAGAATGAAGG DNA 2: CCTTCATTCTACGCTGTCAATCGCGTGCCCAGCAGGCTGCGTGAAAGCAGACTGCTCCGC,-1.82 PBM z-score against 500 random probes,binding signal (RARb:RXRa): -2.02 PBM z-score against 500 random probes
NRC3_random_hg19_262_o1 (dsDNA) DNA 1: GCGACTAATGCTTACCTTTAGAAAGTGCAAGTGAATGCGATTGACAGCGTAGAATGAAGG DNA 2: CCTTCATTCTACGCTGTCAATCGCATTCACTTGCACTTTCTAAAGGTAAGCATTAGTCGC,0.24 PBM z-score against 500 random probes,binding signal (FXR:RXRa): 0.19 PBM z-score against 500 random probes; binding signal (PPARa:RXRa): 0.36 PBM z-score against 500 random probes
NRC3_random_hg19_495_o1 (dsDNA) DNA 1: GCGCACCATCTGTGAGAAAGTAGCCCTTCACCAAACGCGATTGACAGCGTAGAATGAAGG DNA 2: CCTTCATTCTACGCTGTCAATCGCGTTTGGTGAAGGGCTACTTTCTCACAGATGGTGCGC,-0.24 PBM z-score against 500 random probes,binding signal (FXR:RXRa): -0.51 PBM z-score against 500 random probes
NRC3_random_hg19_151_o1 (dsDNA) DNA 1: GCCCCAATCTACTAGAAACACTTCCTGGAGAACCCGGCGATTGACAGCGTAGAATGAAGG DNA 2: CCTTCATTCTACGCTGTCAATCGCCGGGTTCTCCAGGAAGTGTTTCTAGTAGATTGGGGC,0.38 PBM z-score against 500 random probes,binding signal (RARg:RXRa): -0.01 PBM z-score against 500 random probes
